# Patent US20220098591, “STEM-LOOP COMPOSITIONS AND METHODS FOR INHIBITING VASCULAR ENDOTHELIAL GROWTN FACTOR” (DRIVE THERAPEUTICS LLC, published 2022)
# T1: VEGF-A165 (Homo sapiens)
# T1 chain: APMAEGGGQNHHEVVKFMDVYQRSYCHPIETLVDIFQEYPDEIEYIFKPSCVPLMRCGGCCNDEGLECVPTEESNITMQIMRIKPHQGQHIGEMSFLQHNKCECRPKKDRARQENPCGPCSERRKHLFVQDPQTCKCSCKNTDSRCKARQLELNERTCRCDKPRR
# Target: T2, VEGF-A121 (Homo sapiens, UniProt P15692 SEQ:1-121)
# Experiment: competition; TR-FRET
# Details: tags: glycan-biotinylated for SPR/FRET/AlphaLISA; Acro BioSystems, Biolegend; chain copies: 2 (stated)
# Target sequence in this assay (P15692 other isoform, or with tags, fused parts or gaps): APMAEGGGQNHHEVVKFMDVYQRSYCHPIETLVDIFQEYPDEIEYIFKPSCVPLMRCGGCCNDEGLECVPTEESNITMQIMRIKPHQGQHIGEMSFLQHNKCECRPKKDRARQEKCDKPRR
row,Binder,binding result
1,"CGACCCGCGCGGAGGGGUUUCAUUAUCCCGUUUGUCG (ssRNA, G 2'-F except 2'-OMe-G as X in CXAC-Sp3-CCGCGCGGAGGGXUUUCAUUAUCCCGUUUXUCX; A,C,U 2'-OMe; Sp3 joins the two parts; 5' C6NH2; 3' idT) [Aptamer 234]",binds
2,"AGGCCGAACCGCGCGGAGGGGUUUCAUUAUCCCGUUUUUCGGCUU (ssRNA, all G 2'-F; A,C,U 2'-OMe; Sp3 joins the two parts; 5' C6NH2; 3' idT) [Aptamer 137]",binds
3,"AGGCCGAUCCGCGCGGAGGGGUUUCAUUAUCCCGUUUAUCGGCUU (ssRNA, all G 2'-F; A,C,U 2'-OMe; Sp3 joins the two parts; 5' C6NH2; 3' idT) [Aptamer 138]",binds
4,"AGGCCGUACCGCGCGGAGGGGUUUCAUUAUCCCGUUUUACGGCUU (ssRNA, all G 2'-F; A,C,U 2'-OMe; Sp3 joins the two parts; 5' C6NH2; 3' idT) [Aptamer 139]",binds
5,"AGGCCGACCCGCGCGGAGGGGUUUCAUUACCCCGUUUGUCGGCUU (ssRNA, all G 2'-F; A,C,U 2'-OMe; Sp3 joins the two parts; 5' C6NH2; 3' idT) [Aptamer 187]",binds
6,"AGGCCGUCCCGCGCGGAGGGGUUUCAUUAUCCCGUUUGACGGCUU (ssRNA, all G 2'-F; A,C,U 2'-OMe; Sp3 joins the two parts; 5' C6NH2; 3' idT) [Aptamer 142]",binds
7,"AGGCCGCACCGCGCGGAGGGGUUUCAUUAUCCCGUUUUGCGGCUU (ssRNA, all G 2'-F; A,C,U 2'-OMe; Sp3 joins the two parts; 5' C6NH2; 3' idT) [Aptamer 143]",binds
8,"AGGCCGCUCCGCGCGGAGGGGUUUCAUUAUCCCGUUUAGCGGCUU (ssRNA, all G 2'-F; A,C,U 2'-OMe; Sp3 joins the two parts; 5' C6NH2; 3' idT) [Aptamer 144]",binds

# Target: T1, VEGF-A165
# Experiment: cell_activity; KDR phosphorylation; >50% at 100 nM with VEGF-A121
# Details: tags: glycan-biotinylated for SPR/FRET/AlphaLISA; Acro BioSystems, R&D Systems; chain copies: 2 (inferred)
# Method: (§1) Briefly, HEK293 cells engineered to stably overexpress KDR were plated overnight in collagen coated 96 well plates at 50 k cells/well. Aptamers in SB1+ (40 mM HEPES, pH 7.5, 125 mM NaCl, 5 mM KCl, 1 mM MgCl₂) were heated to 90° C. for 3 minutes and allowed to cool to room temperature for a minimum of 10 minutes. […] 15 μL of VEGF-A was added to 15 μL titrated aptamer in a polypropylene plate and diluted to 300 μL with TS buffer (10 mM Tris pH 7.5; 100 mM NaCl; 5.7 mM KCl; 1 mM MgCl₂; 1 mM CaCl₂). The aptamer/VEGF-A mixture was incubated at 37° C. for 30 minutes, after which 100 μL was added to the cells for 5 minutes at 37° C. in 5% CO₂. Treatments were aspirated from cells, and cells were lysed with 100 μL cold lysis buffer [20 mM Tris-HCl, pH 7.5, 150 mM NaCl, 1 mM EDTA, 1% Triton X-100, 0.5 mM sodium orthovanadate (freshly prepared), 1 mM PMSF (freshly prepared), lx protease inhibitor cocktail (freshly prepared)] on ice for 10 minutes. Plates were centrifuged at 4000×g for 10 minutes before transferring the cell lysis to the AlphaLISA® assay plate.
# (§2) To perform the AlphaLISA® assay, 10 μL of cell lysis was transferred to a white low volume 384 well Optiplate (Perkin Elmer). […] 10 μL of this reagent mixture was added to the assay plate that contained 10 μL of cell lysate. The assay plate was sealed and incubated in the dark for approximately 2 hours, then was read on a Biotek CYTATION™ 5 plate reader using the Alpha 384 well optical cube. Percent inhibition was calculated by subtracting TS buffer background from each value and normalizing to VEGF-A only controls. The values were fit by using a four-parameter non-linear fit in GraphPad Prism Version 7.0.
row,Binder,activity [% inhibition at 10 nM]
1,"UAGUCCGCCUCCGCGCGGAGGGGUUUCAUUAUCCCGUUUGGCGGCUUU (ssRNA, all G 2'-F; A,C,U 2'-OMe; 5' C6NH2; 3' idT)",> 50
2,"UAGGCCGCCUCCGCGCGGAGGGGUUUCAUUUAUCCCGUUUGGCGGCUUU (ssRNA, all G 2'-F; A,C,U 2'-OMe; 5' C6NH2; 3' idT)",> 50
3,"UAGACCGCCUCCGCGCGGAGGGGUUUCAUUAUCCCGUUUGGCGGCUUU (ssRNA, all G 2'-F; A,C,U 2'-OMe; 5' C6NH2; 3' idT)",> 50
4,"UAGGCCGCCUCCGCGCGGAGGGGUUUCAUUAUCCCGUUUGGCGGCCUU (ssRNA, all G 2'-F; A,C,U 2'-OMe; 5' C6NH2; 3' idT)",> 50

# Target: T2, VEGF-A121
# Experiment: competition; TR-FRET
# Details: tags: glycan-biotinylated for SPR/FRET/AlphaLISA; Acro BioSystems, Biolegend; chain copies: 2 (stated)
# Remark: another data set of the same source
# Method: (§3) Briefly, for competition TR-FRET, 2-fold dilutions of thermally equilibrated aptamers were made in TR-FRET Buffer (50 mM MOPS, pH 7.4, 125 mM NaCl, 5 mM KCl, 50 μM CHAPS, 0.1 mg/mL BSA, 1 mM CaCl₂, and 1 mM MgCl₂). 5 μL of aptamer or control solution was added to a 15 μL mix of glycan biotinylated […] (5 nM final), ALEXA FLUOR® 647-labeled Aptamer (30 nM final), and Streptavidin-Eu (Perkin Elmer; 2.5 nM final) in a black wall low volume 384 well plate (Greiner). For control, 5 μl of 1000-fold excess of unlabeled parent aptamer or 5 μl TR-FRET buffer alone was added to the mix of ALEXA FLUOR® 647-labeled aptamer, biotin-VEGF-A, and Streptavidin-Eu. The plate was covered with a plate seal and subsequently incubated in the dark for 1 hour at room temperature. The plate was read on a Biotek CYTATION™ 5 plate reader. Samples were excited at 330 nm and fluorescent values were collected at 665 nm. Data analysis was performed by subtracting the background value and plotting as percent inhibition, normalized to baseline in the absence of competitor. The values were fit by [Inhibitor] vs. response-Variable slope (four parameters) using GraphPad Prism Version 7.0 and then normalized to aptamer control to obtain an IC₅₀ relative to parent aptamer. Data is presented as log values of relative IC₅₀.
# Activity of each of these variants were tested using a time resolved competition TR-FRET assay, as described in Example 7, in which a labeled parent was competed with increasing concentrations of unlabeled variants for binding to VEGF-A₁₂₁.
Binder,binding signal,binding result
"AGGCCGCCUCCGCCCGGAGGGGUUUCAUUAUCCCGUUUGGCGGCUU (ssRNA, all G 2'-F; A,C,U 2'-OMe; 5' C6NH2; 3' idT) [Aptamer 156]",> 100 fold worse IC50 vs Aptamer 26,–
"AGGCCGCCUCCGCUCGGAGGGGUUUCAUUAUCCCGUUUGGCGGCUU (ssRNA, all G 2'-F; A,C,U 2'-OMe; 5' C6NH2; 3' idT) [Aptamer 157]",> 100 fold worse IC50 vs Aptamer 26,–
"AGGCCGCCUCCGCGAGGAGGGGUUUCAUUAUCCCGUUUGGCGGCUU (ssRNA, all G 2'-F; A,C,U 2'-OMe; 5' C6NH2; 3' idT) [Aptamer 158]",> 100 fold worse IC50 vs Aptamer 26,–
"AGGCCGCCUCCGCGGGGAGGGGUUUCAUUAUCCCGUUUGGCGGCUU (ssRNA, all G 2'-F; A,C,U 2'-OMe; 5' C6NH2; 3' idT) [Aptamer 159]",> 100 fold worse IC50 vs Aptamer 26,–
"AGGCCGCCUCCGCGUGGAGGGGUUUCAUUAUCCCGUUUGGCGGCUU (ssRNA, all G 2'-F; A,C,U 2'-OMe; 5' C6NH2; 3' idT) [Aptamer 160]",> 100 fold worse IC50 vs Aptamer 26,–
"AGGCCGCCUCCGCGCGGCGGGGUUUCAUUAUCCCGUUUGGCGGCUU (ssRNA, all G 2'-F; A,C,U 2'-OMe; 5' C6NH2; 3' idT) [Aptamer 161]",> 100 fold worse IC50 vs Aptamer 26,–
"AGGCCGCCUCCGCGCGGAGGGGUUUCAUUAUCCCAUUUGGCGGCUU (ssRNA, all G 2'-F; A,C,U 2'-OMe; 5' C6NH2; 3' idT) [Aptamer 162]",> 100 fold worse IC50 vs Aptamer 26,–
"AGGCCGCCUCCGCGCGGAGGGGUUUCAUUAUCCCCUUUGGCGGCUU (ssRNA, all G 2'-F; A,C,U 2'-OMe; 5' C6NH2; 3' idT) [Aptamer 163]",> 100 fold worse IC50 vs Aptamer 26,–
"AGGCCGCCUCCGCGCGGAGGGGUUUCAUUAUCCCUUUUGGCGGCUU (ssRNA, all G 2'-F; A,C,U 2'-OMe; 5' C6NH2; 3' idT) [Aptamer 164]",> 100 fold worse IC50 vs Aptamer 26,–
"AGGCCGCCUCCGCGCGGAGGGGUUUCAUUAUCCCGCUUGGCGGCUU (ssRNA, all G 2'-F; A,C,U 2'-OMe; 5' C6NH2; 3' idT) [Aptamer 166]",–,binds

# Target: T2, VEGF-A121
# Experiment: cell_activity; KDR phosphorylation in HEK293-KDR
# Details: tags: glycan biotinylated in TR-FRET; Biolegend in the cell assay; chain copies: 2
# Method: as §1, §2
row,Binder,activity [% inhibition at 100 nM]
1,"UAGUCCGCCUCCGCGCGGAGGGGUUUCAUUAUCCCGUUUGGCGGCUUU (ssRNA, 2'-F G; 2'-OMe A,C,U; 5' C6NH2; 3' idT)",> 50
2,"UAGGCCGCCUCCGCGCGGAGGGGUUUCAUUUAUCCCGUUUGGCGGCUUU (ssRNA, 2'-F G; 2'-OMe A,C,U; 5' C6NH2; 3' idT)",> 50
3,"UAGACCGCCUCCGCGCGGAGGGGUUUCAUUAUCCCGUUUGGCGGCUUU (ssRNA, 2'-F G; 2'-OMe A,C,U; 5' C6NH2; 3' idT)",> 50
4,"UAGGCCGCCUCCGCGCGGAGGGGUUUCAUUAUCCCGUUUGGCGGCCUU (ssRNA, 2'-F G; 2'-OMe A,C,U; 5' C6NH2; 3' idT)",> 50

# Target: T2, VEGF-A121
# Experiment: competition; TR-FRET
# Details: tags: glycan-biotinylated for SPR/FRET/AlphaLISA; Acro BioSystems, Biolegend; chain copies: 2 (stated)
# Remark: another data set of the same source
# Method: as §3
Binder,binding signal,binding result
"CGACCCGCGCGGAGGGGUUUCAUAAUCCCGUUUGUCG (ssRNA, G 2'-F except 2'-OMe-G as X in CXAC-Sp3-CCGCGCGGAGGGXUUUCAUAAUCCCGUUUXUCX; A,C,U 2'-OMe; Sp3 joins the two parts; 5' C6NH2; 3' idT) [Aptamer 285]",~10 fold better IC50 vs Aptamer 141,–
"ACCCGCGCGGAGGGGUUUCAUUAUCCCGUUUGU (ssRNA, G 2'-F except 2'-OMe-G as X in AC-Sp3-CCGCGCGGAGGGXUUUCAUUAUCCCGUUUGU; A,C,U 2'-OMe; Sp3 joins the two parts; 5' C6NH2; 3' idT) [Aptamer 276]",> 100 fold worse IC50 vs Aptamer 141,–
"AGGCCGCCUCCGCGCGGAGGGGUUCAUUAUCCCGUUUGGCGGCUU (ssRNA, all G 2'-F; A,C,U 2'-OMe; Sp3 joins the two parts; 5' C6NH2; 3' idT) [Aptamer 63]",–,binds
"AGGCCGCCUCCGCGCGGAGGGGUUUCUUAUCCCGUUUGGCGGCUU (ssRNA, all G 2'-F; A,C,U 2'-OMe; Sp3 joins the two parts; 5' C6NH2; 3' idT) [Aptamer 65]",–,binds
"AGGCCGCCUCCGCGCGGAGGGGUUUCAUAUCCCGUUUGGCGGCUU (ssRNA, all G 2'-F; A,C,U 2'-OMe; Sp3 joins the two parts; 5' C6NH2; 3' idT) [Aptamer 66]",–,binds
"AGGCCGCCUCCGCGCGGAGGGGUUUCAUAUCCCGUUUGGCGGCUU (ssRNA, all G 2'-F; A,C,U 2'-OMe; Sp3 joins the two parts; 5' C6NH2; 3' idT) [Aptamer 67]",–,binds
"AGGCCGCCUCCGCGCGGAGGGGUUUCAUUUCCCGUUUGGCGGCUU (ssRNA, all G 2'-F; A,C,U 2'-OMe; Sp3 joins the two parts; 5' C6NH2; 3' idT) [Aptamer 68]",> 100 fold worse IC50 vs Aptamer 26,–

# Target: T2, VEGF-A121
# Experiment: competition; TR-FRET
# Details: tags: glycan-biotinylated for SPR/FRET/AlphaLISA; Acro BioSystems, Biolegend; chain copies: 2 (stated)
# Remark: another data set of the same source
# Method: as §3
# Starting at position 6, 2′F-G residues were systematically replaced, one at a time, and the activity of the resultant molecule was assessed by competition TR-FRET, as described in Example 7, against the parent molecule, Aptamer 141.
row,Binder,binding signal
1,"AGGCCGACCCGCGCGGAGGGGUUUCAUUAUCCCGUUUGUCGGCUU (ssRNA, G 2'-F except G22 2'-OMe; A,C,U 2'-OMe; Sp3 joins the two parts; 5' C6NH2; 3' idT) [Aptamer 196]",~2 fold better IC50 vs Aptamer 141
2,"AGGCCGACCCGCGCGGAGGGGUUUCAUUAUCCCGUUUGUCGGCUU (ssRNA, G 2'-F except G39 2'-OMe; A,C,U 2'-OMe; Sp3 joins the two parts; 5' C6NH2; 3' idT) [Aptamer 198]",~2 fold better IC50 vs Aptamer 141
